Data on 94 variants can be found in the supplement of paper PMC10567573.

B1: CPXM2 (parent)
chain: TASTKNCMVGYDMGATRCDFTLSK
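Further: lentivirally expressed fusions sorted by FACS into six bins by GFP to DsRed ratio, PSI derived from sequencing read proportions per bin multiplied by bin number.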

The variants in this series derive from B1. The series is described as follows: protein stability index of a GFP-peptide fusion (GPS, HEK-293T) (PSI 1-6); higher = more stable. The following applies: c terminus: a fixed tail appended.
Regarding TASTKNCMVGDDMGATRCDFTLSK, the protein stability index amounted to 3.33. To TASTKNCMVGSDMGATRCDFTLSK belongs 2.28; to TASTKNCMVGNDMGATRCDFTLSK, 2.6. To TASTFNCMVGYDMGATRCDFTLSK belongs 2.25; to TASTRNCMVGYDMGATRCDFTLSK, 1.59. In the case of TASTTNCMVGYDMGATRCDFTLSK, the protein stability index is 2.35. To TASTYNCMVGYDMGATRCDFTLSK belongs 1.72; to TASTENCMVGYDMGATRCDFTLSK, 3.21; to TASTINCMVGYDMGATRCDFTLSK, 2.04. To TASTGNCMVGYDMGATRCDFTLSK belongs 2.46; to TASTKNCMVGYDMGATRCDFTLNK, 2.6; to TASTKNCMVGYDMGATRCDFTLMK, 2. TASTKNCMVGYDMGATRCDFTLCK: the protein stability index worked out at 1.46. To TASTKNCMVGYDMGATRCDFTLPK belongs 2.59; to AASTKNCMVGYDMGATRCDFTLSK, 2.66; to MASTKNCMVGYDMGATRCDFTLSK, 2.45. To LASTKNCMVGYDMGATRCDFTLSK belongs 2.18; to NASTKNCMVGYDMGATRCDFTLSK, 2.51. On to HASTKNCMVGYDMGATRCDFTLSK, for which the protein stability index is 1.82.

Consider TASTKNCMVGYDMGHTRCDFTLSK, for which the protein stability index worked out at 2.89. To TASTKNCMVGYDMGNTRCDFTLSK belongs 2.62.

As to TASTKNCMVGYDMGYTRCDFTLSK, the protein stability index was found to be 2.19. In the case of TANTKNCMVGYDMGATRCDFTLSK, the protein stability index was 2.37.

With TAMTKNCMVGYDMGATRCDFTLSK, the protein stability index stood at 2.1.

In the case of TAWTKNCMVGYDMGATRCDFTLSK, the protein stability index worked out at 2.09. On to TAITKNCMVGYDMGATRCDFTLSK, for which the protein stability index amounted to 1.67.

As to TAYTKNCMVGYDMGATRCDFTLSK, the protein stability index was determined as 1.88. Regarding TAPTKNCMVGYDMGATRCDFTLSK, the protein stability index was 2.57. To TASTKNCMVGYNMGATRCDFTLSK belongs 2.02; to TASTKNCMVGYVMGATRCDFTLSK, 2.44. To TASTKNCMVGYWMGATRCDFTLSK belongs 1.98; to TASTKNCMVGYSMGATRCDFTLSK, 2.72; to TASTKNCMVGYHMGATRCDFTLSK, 2.14. To TASTKNCMVGYTMGATRCDFTLSK belongs 1.98. Turning to TASTKNCMVGYQMGATRCDFTLSK, the protein stability index stood at 2.14. For the variant TASTKNCMVGYKMGATRCDFTLSK, the protein stability index was determined as 2.47. With TASTKNCMVGYPMGATRCDFTLSK, the protein stability index is 2.15.

As to TASQKNCMVGYDMGATRCDFTLSK, the protein stability index was found to be 2.25. To TASPKNCMVGYDMGATRCDFTLSK belongs 2.47; to TASTKNCMVGYDMGATRCDFTTSK, 3.23; to TASTKNCMVGYDMGATRCDFTESK, 3.07. Consider TASTKNCMVGYDMGATRCDFTFSK, for which the protein stability index worked out at 2.12.

Regarding TASTKNCMVGYDMGATRCDFTVSK, the protein stability index is 2.52. For the variant TASTKNCMVGYDMGATRCDFTASK, the protein stability index was found to be 2.64. Regarding TASTKNCMVGYDMGATRCDFTGSK, the protein stability index is 3.48.

Turning to TASTKNCMVGYDMGATRCDFTKSK, the protein stability index came out at 3.36.

For TASTKNCMVGYDMGATRCDFTMSK, the protein stability index was 2.39.

TASTKNCMVGYDMGATRCDFTNSK: the protein stability index was 3.41. To TASTKNCMVGYDMGATRCDFTDSK belongs 3.58; to TASTKNCAVGYDMGATRCDFTLSK, 1.88. To TASTKNCLVGYDMGATRCDFTLSK belongs 2.14; to TASTKNCNVGYDMGATRCDFTLSK, 3.95; to TASTKNCCVGYDMGATRCDFTLSK, 1.77. To TASTKNCGVGYDMGATRCDFTLSK belongs 2.08.

Turning to TASTKNCQVGYDMGATRCDFTLSK, the protein stability index amounted to 2.62.

For TASTKNCMVGYDMGATRCHFTLSK, the protein stability index was 2.59. To TASTKNCMVGYDMGATRCFFTLSK belongs 1.75; to TASTKNCMVGYDMGATRCEFTLSK, 2.18.

For the variant TASTKNCMVGYDMGATRCYFTLSK, the protein stability index came out at 2.36. Turning to TASTKNCMVGYDMGATRCKFTLSK, the protein stability index turned out to be 2.67. Take TASTKNCMVGYDMGATRCSFTLSK: the protein stability index worked out at 2.08. To TGSTKNCMVGYDMGATRCDFTLSK belongs 2.91; to TRSTKNCMVGYDMGATRCDFTLSK, 2.68; to TSSTKNCMVGYDMGATRCDFTLSK, 2.58. To TMSTKNCMVGYDMGATRCDFTLSK belongs 2.41; to TTSTKNCMVGYDMGATRCDFTLSK, 2.06; to TFSTKNCMVGYDMGATRCDFTLSK, 2.58. To TASTKNCMVGYDMGATRCDFDLSK belongs 2.52.

On to TASTKNCMVGYDMGATRCDFNLSK, for which the protein stability index is 3.06. As for TASTKNCMVGYDMGATRCDFCLSK, the protein stability index stood at 1.57.

For the variant TASTKNCMVGYDMGATRCDFRLSK, the protein stability index was 2.89.

With TASTKNCMVGYDMGATRCDFQLSK, the protein stability index turned out to be 3.15. To TASTKNCMVQYDMGATRCDFTLSK belongs 1.73; to TASTKNCMVRYDMGATRCDFTLSK, 1.84. Turning to TASTKNCMVNYDMGATRCDFTLSK, the protein stability index was 1.86. To TASTKNCMVVYDMGATRCDFTLSK belongs 2.72; to TASTKNCMVCYDMGATRCDFTLSK, 2.2; to TASTKNCMVPYDMGATRCDFTLSK, 1.76. Turning to TASTKNCMVWYDMGATRCDFTLSK, the protein stability index was 1.64. As to TASTKNCMVLYDMGATRCDFTLSK, the protein stability index came to 2.38.

With TASTKNCMVGYDMGATRCDFTLSC, the protein stability index was determined as 2.38.

Turning to TASTKNCMVGYDMGATRCDFTLSS, the protein stability index was 2.22. On to TASTKNCMVGYDMGATRCDFTLSI, for which the protein stability index was 3.76. On to TASTKNCMVGYDMGATRCDFTLSV, for which the protein stability index was 2.78. To TASTKNCMVGYDMGATRCDFTLSE belongs 2.62; to TASTKNCMVGYDMGATRCDFTLSL, 1.52.

As for TASTKNCMVGYDMGANRCDFTLSK, the protein stability index amounted to 2.75. To TASTKNCMVGYDMGAHRCDFTLSK belongs 2.47; to TASTKNCMVGYDMGARRCDFTLSK, 3.06. Consider TASTKNCMVGYDMGAFRCDFTLSK, for which the protein stability index came to 1.75.

For TASTKNCMVGYDMGACRCDFTLSK, the protein stability index amounted to 2.26.

In the case of TASTKNCMVGYDMGAVRCDFTLSK, the protein stability index was found to be 2.66. To TASTKNCMVGYDMGAQRCDFTLSK belongs 2.86. To TASTKNCMVGYDMGAARCDFTLSK belongs 2.7.
